Target: Shiga toxin 2 (UniProt P09385)
Sequence (P09385 23-319, chain 1 of 2): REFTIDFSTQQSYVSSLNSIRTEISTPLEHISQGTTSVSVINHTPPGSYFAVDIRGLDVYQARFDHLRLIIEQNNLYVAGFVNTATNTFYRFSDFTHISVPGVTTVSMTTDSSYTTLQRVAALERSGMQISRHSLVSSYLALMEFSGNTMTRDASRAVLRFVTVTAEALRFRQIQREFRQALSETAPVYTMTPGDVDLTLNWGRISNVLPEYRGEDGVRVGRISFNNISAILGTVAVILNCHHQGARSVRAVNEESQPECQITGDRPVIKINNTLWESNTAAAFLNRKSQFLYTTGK
Sequence (P09386 20-89, chain 2 of 2, further chain): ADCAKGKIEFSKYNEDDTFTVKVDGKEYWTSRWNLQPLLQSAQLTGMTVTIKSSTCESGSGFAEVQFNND

NAB815 (OA-Dab-Thr-DThr-cy[Dab-Dab-DPhe-Leu-Abu-Dab-Thr-]) (peptide)
Kd: 5 nM
maximum reduction of fluorescence emission: 10%

Reference: patent US20230053129A1
